Reference: publication PMC5966295, “Crystal structures of murine and human Histamine-Releasing Factor (HRF/TCTP) and a model for HRF dimerisation in mast cell activation” (Molecular Immunology, 2018)

Target: the molecule itself
Test: crystal structure; hHRF-2 crystal form, 1.4 Å; crystals grown at 18 °C in 0.1 M MES pH6.0 and 20% (w/v) PEG 2000 MME; two molecules in the asymmetric unit, disulphide-linked dimer

B1: human Histamine-Releasing Factor (natural protein, UniProt P13693 1-172, looked up)
chain: MIIYRDLISHDEMFSDIYKIREIADGLCLEVEGKMVSRTEGNIDDSLIGGNASAEGPEGEGTESTVITGVDIVMNHHLQETSFTKEAYKKYIKDYMKSIKGKLEEQRPERVKPFMTGAAEQIKHILANFKNYQFFIGENMNPDGMVALLDYREDGVTPYMIFFKDGLEMEKC
notes: Histamine-Releasing Factor (HRF/TCTP), human, wild type; Met1 to Cys172, followed by the C-terminal purification tag Leu173-His180; The tag is ordered in the crystals and contributes about 25% of the hHRF-2 dimer interface; In hHRF-2 the two chains are joined by an intermolecular disulphide bond Cys172-Cys172; also called hHRF; HRF; source: prepared according to a previously described protocol …
In the case of B1, the “stoichiometry N” value is reported as 2.
